For the series, the target named is Oct1 DNA binding domain (Oct1-DBD);OCA-B (human (from pBabe-hOct1);, UniProt P14859;Q16633 280-438;1-256, |). Kind of series: EMSA; OCA-B supershifts Oct1-DBD; EMSA: 0.6X buffer D (1X: 20 mM HEPES, 100 mM KCl, 1 mM DTT), 50 ng/ul poly-dI/dC, 1 ug/ul BSA, on ice 15 min, 6% native PAGE in 0.5X TBE; probe 50 nM (1 nM for). To be noted: protein: recombinant;recombinant; tags: His (pET28a);C-terminal twinstrep and FLAG; copies: 1;1; blunt. (In general: In EMSA bound probe runs differently from free probe, usually more slowly.)
Oct1 DNA binding domain (Oct1-DBD);OCA-B, sequence (P14859 280-438, chain 1 of 2): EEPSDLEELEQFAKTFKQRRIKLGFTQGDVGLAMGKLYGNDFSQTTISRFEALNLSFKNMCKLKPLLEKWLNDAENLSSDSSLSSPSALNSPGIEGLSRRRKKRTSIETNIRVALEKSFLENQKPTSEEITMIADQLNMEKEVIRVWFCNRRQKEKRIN
Oct1 DNA binding domain (Oct1-DBD);OCA-B, sequence (Q16633 whole entry, chain 2 of 2, the tested form may be a part): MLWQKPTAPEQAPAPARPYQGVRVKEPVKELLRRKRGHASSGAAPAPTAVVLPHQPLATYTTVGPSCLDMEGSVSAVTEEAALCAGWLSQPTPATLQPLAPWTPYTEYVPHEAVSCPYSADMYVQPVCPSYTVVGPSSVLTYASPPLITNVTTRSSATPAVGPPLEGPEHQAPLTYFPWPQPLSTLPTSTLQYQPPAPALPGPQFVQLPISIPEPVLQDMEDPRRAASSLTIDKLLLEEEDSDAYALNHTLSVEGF

The source of these data is PMC12069319, “Transcriptional co-regulator OCA-B/Pou2af1 restricts Th2 differentiation”.

B1: RHS6-Cy5 (dsDNA)
DNA 1: CACCATGCAAAGGATGTGCGCGGACTCCCTTCCATTTGCTGGCCTCTTATCTGATA
DNA 2: TATCAGATAAGAGGCCAGCAAATGGAAGGGAGTCCGCGCACATCCTTTGCATGGTG
For the molecule B1, the binding result is given as “binds”.
